Results as given in patent publication US20230143604A1, “QW DOSING OF GIP RECEPTOR AGONIST PEPTIDE COMPOUNDS AND USES THEREOF” (TAKEDA PHARMACEUTICAL COMPANY LIMITED, priority 2020, published 2023).
Starred links: 1 amine or outer side, 2 acyl side, 3 side chain; linkers in the order of their positions; H or OH if unused. Non-standard residues stand in square brackets, D forms with d. Groups on a side chain read outwards from the residue. No end group written: not given here. *: point of attachment. C17 diacid = O=C(O)CCCCCCCCCCCCCCCC(=O)*; γGlu = O=C(O)[C@H](CCC(=O)[*:2])N[*:1]; NMeY = CN[C@@H](Cc1ccc(O)cc1)C(=O)O; AEEA = NCCOCCOCC(=O)O; Aib = CC(C)(N)C(=O)O

B1: Compound No. 129 (peptide)
peptide: H-Y[Aib]EGTFISDYSI[Aib]LDKIAQQK([AEEA-AEEA-γGlu-γGlu-C17 diacid])FVEWLLAQRG-OH
SMILES: CC[C@H](C)[C@H](NC(=O)[C@H](CCCCN)NC(=O)[C@H](CC(=O)O)NC(=O)[C@H](CC(C)C)NC(=O)C(C)(C)NC(=O)[C@@H](NC(=O)[C@H](CO)NC(=O)[C@H](Cc1ccc(O)cc1)NC(=O)[C@H](CC(=O)O)NC(=O)[C@H](CO)NC(=O)[C@@H](NC(=O)[C@H](Cc1ccccc1)NC(=O)[C@@H](NC(=O)CNC(=O)[C@H](CCC(=O)O)NC(=O)C(C)(C)NC(=O)[C@@H](N)Cc1ccc(O)cc1)[C@@H](C)O)[C@@H](C)CC)[C@@H](C)CC)C(=O)N[C@@H](C)C(=O)N[C@@H](CCC(N)=O)C(=O)N[C@@H](CCC(N)=O)C(=O)N[C@@H](CCCCNC(=O)COCCOCCNC(=O)COCCOCCNC(=O)CC[C@H](NC(=O)CC[C@H](NC(=O)CCCCCCCCCCCCCCCC(=O)O)C(=O)O)C(=O)O)C(=O)N[C@@H](Cc1ccccc1)C(=O)N[C@H](C(=O)N[C@@H](CCC(=O)O)C(=O)N[C@@H](Cc1c[nH]c2ccccc12)C(=O)N[C@@H](CC(C)C)C(=O)N[C@@H](CC(C)C)C(=O)N[C@@H](C)C(=O)N[C@@H](CCC(N)=O)C(=O)N[C@@H](CCCNC(=N)N)C(=O)NCC(=O)O)C(C)C
B2: Compound No. 126 (peptide)
peptide: [NMeY][Aib]EGTFISDYSI[Aib]LDR[Aib]AQ[Aib]K([AEEA-AEEA-γGlu-γGlu-C17 diacid])FVNWLLAQSPG-OH
modifications: N-terminus assumed
SMILES: CC[C@H](C)[C@H](NC(=O)[C@H](Cc1ccccc1)NC(=O)[C@@H](NC(=O)CNC(=O)[C@H](CCC(=O)O)NC(=O)C(C)(C)NC(=O)[C@H](Cc1ccc(O)cc1)NC)[C@@H](C)O)C(=O)N[C@@H](CO)C(=O)N[C@@H](CC(=O)O)C(=O)N[C@@H](Cc1ccc(O)cc1)C(=O)N[C@@H](CO)C(=O)N[C@H](C(=O)NC(C)(C)C(=O)N[C@@H](CC(C)C)C(=O)N[C@@H](CC(=O)O)C(=O)N[C@@H](CCCNC(=N)N)C(=O)NC(C)(C)C(=O)N[C@@H](C)C(=O)N[C@@H](CCC(N)=O)C(=O)NC(C)(C)C(=O)N[C@@H](CCCCNC(=O)COCCOCCNC(=O)COCCOCCNC(=O)CC[C@H](NC(=O)CC[C@H](NC(=O)CCCCCCCCCCCCCCCC(=O)O)C(=O)O)C(=O)O)C(=O)N[C@@H](Cc1ccccc1)C(=O)N[C@H](C(=O)N[C@@H](CC(N)=O)C(=O)N[C@@H](Cc1c[nH]c2ccccc12)C(=O)N[C@@H](CC(C)C)C(=O)N[C@@H](CC(C)C)C(=O)N[C@@H](C)C(=O)N[C@@H](CCC(N)=O)C(=O)N[C@@H](CO)C(=O)N1CCC[C@H]1C(=O)NCC(=O)O)C(C)C)[C@@H](C)CC
B3: Compound No. 127 (peptide)
peptide: [NMeY][Aib]EGTFISDYSI[Aib]LDR[Aib]AQ[Aib]K([AEEA-AEEA-γGlu-γGlu-C17 diacid])FVNWLLAQRG-OH
modifications: N-terminus assumed
SMILES: CC[C@H](C)[C@H](NC(=O)[C@H](Cc1ccccc1)NC(=O)[C@@H](NC(=O)CNC(=O)[C@H](CCC(=O)O)NC(=O)C(C)(C)NC(=O)[C@H](Cc1ccc(O)cc1)NC)[C@@H](C)O)C(=O)N[C@@H](CO)C(=O)N[C@@H](CC(=O)O)C(=O)N[C@@H](Cc1ccc(O)cc1)C(=O)N[C@@H](CO)C(=O)N[C@H](C(=O)NC(C)(C)C(=O)N[C@@H](CC(C)C)C(=O)N[C@@H](CC(=O)O)C(=O)N[C@@H](CCCNC(=N)N)C(=O)NC(C)(C)C(=O)N[C@@H](C)C(=O)N[C@@H](CCC(N)=O)C(=O)NC(C)(C)C(=O)N[C@@H](CCCCNC(=O)COCCOCCNC(=O)COCCOCCNC(=O)CC[C@H](NC(=O)CC[C@H](NC(=O)CCCCCCCCCCCCCCCC(=O)O)C(=O)O)C(=O)O)C(=O)N[C@@H](Cc1ccccc1)C(=O)N[C@H](C(=O)N[C@@H](CC(N)=O)C(=O)N[C@@H](Cc1c[nH]c2ccccc12)C(=O)N[C@@H](CC(C)C)C(=O)N[C@@H](CC(C)C)C(=O)N[C@@H](C)C(=O)N[C@@H](CCC(N)=O)C(=O)N[C@@H](CCCNC(=N)N)C(=O)NCC(=O)O)C(C)C)[C@@H](C)CC
B4: Compound No. 131 (peptide)
peptide: H-Y[Aib]EGTFISDYSIALDK[Aib]AQAK([AEEA-AEEA-γGlu-γGlu-C17 diacid])FVEWLLAQRG-OH
SMILES: CC[C@H](C)[C@H](NC(=O)[C@H](CO)NC(=O)[C@H](Cc1ccc(O)cc1)NC(=O)[C@H](CC(=O)O)NC(=O)[C@H](CO)NC(=O)[C@@H](NC(=O)[C@H](Cc1ccccc1)NC(=O)[C@@H](NC(=O)CNC(=O)[C@H](CCC(=O)O)NC(=O)C(C)(C)NC(=O)[C@@H](N)Cc1ccc(O)cc1)[C@@H](C)O)[C@@H](C)CC)C(=O)N[C@@H](C)C(=O)N[C@@H](CC(C)C)C(=O)N[C@@H](CC(=O)O)C(=O)N[C@@H](CCCCN)C(=O)NC(C)(C)C(=O)N[C@@H](C)C(=O)N[C@@H](CCC(N)=O)C(=O)N[C@@H](C)C(=O)N[C@@H](CCCCNC(=O)COCCOCCNC(=O)COCCOCCNC(=O)CC[C@H](NC(=O)CC[C@H](NC(=O)CCCCCCCCCCCCCCCC(=O)O)C(=O)O)C(=O)O)C(=O)N[C@@H](Cc1ccccc1)C(=O)N[C@H](C(=O)N[C@@H](CCC(=O)O)C(=O)N[C@@H](Cc1c[nH]c2ccccc12)C(=O)N[C@@H](CC(C)C)C(=O)N[C@@H](CC(C)C)C(=O)N[C@@H](C)C(=O)N[C@@H](CCC(N)=O)C(=O)N[C@@H](CCCNC(=N)N)C(=O)NCC(=O)O)C(C)C
B5: Compound No. 130 (peptide)
peptide: H-Y[Aib]EGTFISDYSIALDK[Aib]AQQK([AEEA-AEEA-γGlu-γGlu-C17 diacid])FVEWLLAQRG-OH
SMILES: CC[C@H](C)[C@H](NC(=O)[C@H](CO)NC(=O)[C@H](Cc1ccc(O)cc1)NC(=O)[C@H](CC(=O)O)NC(=O)[C@H](CO)NC(=O)[C@@H](NC(=O)[C@H](Cc1ccccc1)NC(=O)[C@@H](NC(=O)CNC(=O)[C@H](CCC(=O)O)NC(=O)C(C)(C)NC(=O)[C@@H](N)Cc1ccc(O)cc1)[C@@H](C)O)[C@@H](C)CC)C(=O)N[C@@H](C)C(=O)N[C@@H](CC(C)C)C(=O)N[C@@H](CC(=O)O)C(=O)N[C@@H](CCCCN)C(=O)NC(C)(C)C(=O)N[C@@H](C)C(=O)N[C@@H](CCC(N)=O)C(=O)N[C@@H](CCC(N)=O)C(=O)N[C@@H](CCCCNC(=O)COCCOCCNC(=O)COCCOCCNC(=O)CC[C@H](NC(=O)CC[C@H](NC(=O)CCCCCCCCCCCCCCCC(=O)O)C(=O)O)C(=O)O)C(=O)N[C@@H](Cc1ccccc1)C(=O)N[C@H](C(=O)N[C@@H](CCC(=O)O)C(=O)N[C@@H](Cc1c[nH]c2ccccc12)C(=O)N[C@@H](CC(C)C)C(=O)N[C@@H](CC(C)C)C(=O)N[C@@H](C)C(=O)N[C@@H](CCC(N)=O)C(=O)N[C@@H](CCCNC(=N)N)C(=O)NCC(=O)O)C(C)C

Target: T1, full-length human GIPR with an N-terminal FLAG tag (human, UniProt P48546 22-466)
T1 sequence (looked up): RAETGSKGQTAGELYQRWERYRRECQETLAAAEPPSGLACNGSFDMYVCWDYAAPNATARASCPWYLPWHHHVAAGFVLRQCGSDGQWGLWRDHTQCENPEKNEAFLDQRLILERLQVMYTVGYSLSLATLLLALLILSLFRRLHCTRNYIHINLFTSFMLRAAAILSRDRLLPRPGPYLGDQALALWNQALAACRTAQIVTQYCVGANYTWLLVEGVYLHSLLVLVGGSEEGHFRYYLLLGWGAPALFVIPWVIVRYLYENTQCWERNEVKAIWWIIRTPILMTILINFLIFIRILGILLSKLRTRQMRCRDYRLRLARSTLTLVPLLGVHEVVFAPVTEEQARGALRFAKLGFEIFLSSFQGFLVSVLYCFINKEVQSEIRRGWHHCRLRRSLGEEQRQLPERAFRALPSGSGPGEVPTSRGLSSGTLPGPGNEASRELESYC
Test: cell-based or functional assay

H-Y[Aib]EGTFISDYSIALDKIAQRK([AEEA-AEEA-γGlu-γGlu-C17 diacid])FVEWLLAQRPSSGAPPPS-OH [Compound No. 135] and H-Y[Aib]EGTFISDYSIALDKIAQQK([AEEA-AEEA-γGlu-γGlu-C17 diacid])FVEWLLAQRPSSGAPPPS-OH [Compound No. 134] are within 1.5-fold of each other in “Human GIPR cAMP EC50, HEK293T” value: 0.0007 nM for the first, 0.0006 nM for the second.

Compared with B1, YXEGTFISDYSIAXDRXAQXDFVNWLLAQSPG (N-terminus H; Aib at 2,17,20; Lys(G5-C18 diacid) at 14; C-terminal OH) [Compound No. 128] is 2.2-fold higher in “Human GIPR cAMP EC50, HEK293T” value: 0.0004 nM for the first, 0.0009 nM for the second.

H-Y[Aib]EGTFISDYSIALDKAAQ[Aib]K([AEEA-AEEA-γGlu-γGlu-C17 diacid])FVEWLLAQRG-OH [Compound No. 133] and H-Y[Aib]EGTFISDYSIALDKIAQ[Aib]K([AEEA-AEEA-γGlu-γGlu-C17 diacid])FVEWLLAQRG-OH [Compound No. 132] are within 1.5-fold of each other in “Human GIPR cAMP EC50, HEK293T” value: 0.0012 nM for the first, 0.0009 nM for the second.

Going from [NMeY][Aib]EGTFISDYSIAK([γGlu-γGlu-γGlu-C17 diacid])DR[Aib]AQ[Aib]NFVNWLLAQSPSSGAPPPS-NH2 [Compound No. 12] to B2, the “Human GIPR cAMP EC50, HEK293T” value rises from 0.0002 nM to 0.0004 nM (2-fold).

First: B3
Second: B4
The “Human GIPR cAMP EC50, HEK293T” value of the first is 1.8-fold higher: 0.0007 nM for the first, 0.0004 nM for the second.

In the case of B5, the “Human GIPR cAMP EC50, HEK293T” value is reported as 0.0003 nM.

Target: full-length human GLP-1R with an N-terminal FLAG tag (human, UniProt P43220 24-463)
Test: cell-based or functional assay

First: H-Y[Aib]EGTFISDYSIALDKIAQRK([AEEA-AEEA-γGlu-γGlu-C17 diacid])FVEWLLAQRPSSGAPPPS-OH [Compound No. 135]
Second: H-Y[Aib]EGTFISDYSIALDKIAQQK([AEEA-AEEA-γGlu-γGlu-C17 diacid])FVEWLLAQRPSSGAPPPS-OH [Compound No. 134]
The “Human GLP1R cAMP EC50, HEK293T” value of the first is 20-fold lower: 8.32 nM for the first, 170 nM for the second.

First: B1
Second: YXEGTFISDYSIAXDRXAQXDFVNWLLAQSPG (N-terminus H; Aib at 2,17,20; Lys(G5-C18 diacid) at 14; C-terminal OH) [Compound No. 128]
The “Human GLP1R cAMP EC50, HEK293T” value of the first is 16-fold higher: 115 nM for the first, 7.24 nM for the second.

H-Y[Aib]EGTFISDYSIALDKAAQ[Aib]K([AEEA-AEEA-γGlu-γGlu-C17 diacid])FVEWLLAQRG-OH [Compound No. 133] and H-Y[Aib]EGTFISDYSIALDKIAQ[Aib]K([AEEA-AEEA-γGlu-γGlu-C17 diacid])FVEWLLAQRG-OH [Compound No. 132] are within 1.5-fold of each other in “Human GLP1R cAMP EC50, HEK293T” value: 58.9 nM for the first, 66.1 nM for the second.

First: [NMeY][Aib]EGTFISDYSIAK([γGlu-γGlu-γGlu-C17 diacid])DR[Aib]AQ[Aib]NFVNWLLAQSPSSGAPPPS-NH2 [Compound No. 12]
Second: B2
The “Human GLP1R cAMP EC50, HEK293T” value of the first is 31-fold higher: 955 nM for the first, 30.9 nM for the second.

Going from B3 to B4, the “Human GLP1R cAMP EC50, HEK293T” value rises from 63.1 nM to 151 nM (2.4-fold).

For B5, the “Human GLP1R cAMP EC50, HEK293T” value was 95.5 nM.
